{"source": "patent US20210002363A1", "about": "(PHANES THERAPEUTICS, published 2021)", "binders": {"B1": {"name": "F20-H1L3 (antibody, V domains shown)", "VH": "QVQLVQSGAEVKKPGSSVKVSCKASGYTFASYYLYWVRQAPGQGLEWIGEINPRSGGTNFNEKFKSRATVTVDKSTSTAYMELSSLRSEDTAVYYCSRSGRLRGFYTMDYWGQGTLVTVSS", "VL": "DIQMTQSPSTLSASVGDRVTITCKAGENVGSYVSWYQQKPGKAPKLLIYGASNRYTGVPARFSGSGSATEFTLTISSLQPDDFATYYCGQTYRFLTFGQGTKVEVK", "notes": "also called humanized F20 mAb H1L3"}}, "biological_target": "T1, Recombinant extracellular domain of human FOLR1 (Novoprotein, Cat#: C784) (human, UniProt P15328 25-233, limits assumed)", "T1 construct": "Bought reagent; also called recombinant FOLR1; immobilized FOLR1 extracellular domain", "T1 sequence (P15328 25-233 limits assumed)": "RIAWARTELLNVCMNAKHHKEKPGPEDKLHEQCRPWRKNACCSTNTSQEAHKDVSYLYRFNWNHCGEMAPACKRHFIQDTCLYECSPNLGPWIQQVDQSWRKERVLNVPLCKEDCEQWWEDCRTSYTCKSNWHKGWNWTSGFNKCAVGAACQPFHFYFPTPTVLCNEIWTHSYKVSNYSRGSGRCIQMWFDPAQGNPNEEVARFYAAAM", "test": "ELISA on immobilized FOLR1 extracellular domain; O.D. 450 nm"}
{"binder": "B1", "values": [{"measurement": "EC50 (read off the curve)", "result": "~0.2", "unit": "nM"}]}
